Data reported in PMC7324491, “Non-native proteins inhibit the ER oxidoreductin 1 (Ero1)–protein disulfide-isomerase relay when protein folding capacity is exceeded” (The Journal of Biological Chemistry, 2020).
Ends that are not written are not given here. * marks the point of attachment. Biotin = O=C1N[C@H]2[C@H](CS[C@H]2CCCCC(=O)*)N1

Assays:
Ero1α–PDI = target: T1, Ero1α–PDI (Homo sapiens, UniProt P07237); test: oxygen consumption assay; format: biochemical; conditions: pH 7.0, 50 μM inhibitor pre- or postactivation, 10 μM PDI, 10 mM GSH; control compound
T1 construct: gene P4HB; with ERO1-like protein alpha

[1] = target: T2, His-tagged mature protein disulfide-isomerase (PDI) (human, UniProt P07237 18-508); test: BLI; biotin-labeled β-hairpin of Ero1α immobilised on SA biosensors; PDI at 0, 0.5, 1.0, 2.0, 4.0 μM; 30 °C; 20 mM sodium phosphate, pH 7.0, 300 mM NaCl, 1 mM DTT; 1:1 model; conditions: both partners purified
T2 construct: protein disulfide-isomerase (PDI), human, mature protein, domains a, b, b', a'; calculated mass of the construct 56379 Da; Treated with 1 mM DTT before ITC and in the BLI assays with the β-hairpin

[2] = target: T2, His-tagged mature protein …; test: ITC; 600 μM KFWWFS injected into 27 μM PDI; 25 °C; 20 mM sodium phosphate, pH 7.0, 0.15 M NaCl; both treated with 1 mM DTT for 5 min before the measurement; conditions: both partners purified
[3] = target: T2, His-tagged mature protein …; test: BLI; KFWWFS immobilised on AR2G biosensors; PDI at 0, 0.5, 1.0, 2.0 μM; 30 °C; 20 mM sodium phosphate, pH 7.0, 300 mM NaCl; 1:1 model, association and dissociation fitted separately; conditions: both partners purified

T2 sequence (P07237 18-508): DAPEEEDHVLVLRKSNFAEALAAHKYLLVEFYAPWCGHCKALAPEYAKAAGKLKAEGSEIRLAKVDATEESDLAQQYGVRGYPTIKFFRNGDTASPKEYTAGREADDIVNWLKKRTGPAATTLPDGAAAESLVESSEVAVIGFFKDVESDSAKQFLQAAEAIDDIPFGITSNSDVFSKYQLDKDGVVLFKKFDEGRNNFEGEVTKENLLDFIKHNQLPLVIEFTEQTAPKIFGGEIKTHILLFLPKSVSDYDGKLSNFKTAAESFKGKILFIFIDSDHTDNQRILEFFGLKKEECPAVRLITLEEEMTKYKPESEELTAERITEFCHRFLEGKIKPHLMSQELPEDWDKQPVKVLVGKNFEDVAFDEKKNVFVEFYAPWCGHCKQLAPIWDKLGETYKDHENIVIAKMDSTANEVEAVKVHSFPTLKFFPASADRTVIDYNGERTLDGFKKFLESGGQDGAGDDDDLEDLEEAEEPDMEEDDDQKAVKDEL
T1 sequence (P07237 18-508): as above
T1 sequence (Q96HE7 24-468 partner): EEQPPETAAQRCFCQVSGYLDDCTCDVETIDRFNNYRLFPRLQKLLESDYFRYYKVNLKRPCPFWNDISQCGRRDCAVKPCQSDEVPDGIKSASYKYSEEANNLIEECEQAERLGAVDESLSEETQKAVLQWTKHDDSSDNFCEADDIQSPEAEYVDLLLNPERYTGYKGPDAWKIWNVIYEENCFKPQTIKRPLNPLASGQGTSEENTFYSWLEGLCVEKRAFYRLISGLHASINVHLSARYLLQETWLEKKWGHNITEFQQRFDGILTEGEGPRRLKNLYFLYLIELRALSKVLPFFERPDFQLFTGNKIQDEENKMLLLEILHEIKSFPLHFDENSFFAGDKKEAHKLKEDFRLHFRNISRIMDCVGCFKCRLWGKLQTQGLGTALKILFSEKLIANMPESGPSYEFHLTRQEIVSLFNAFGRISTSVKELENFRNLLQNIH

C[C@]12CC[C@@H]3c4ccc(O)cc4CC[C@H]3[C@@H]1CC[C@H]2O [17α-estradiol]
inhibition at 50 μM (Ero1α–PDI): it inhibited both activation and catalytic turnover, but only marginally

B1: β-hairpin of Ero1α (RYLLQETWLEKKWGH) with an N-terminal biotin label (peptide)
peptide: Biotin-RYLLQETWLEKKWGH
notes: protruding β-hairpin of human ER oxidoreductin 1 alpha (Ero1α), with a tryptophan at the tip (Trp272); also called β-hairpin loop of Ero1α; source: synthetic peptide, synthesized by GenScript
Kd [1]: 4 µM

B2: peptide KFWWFS (peptide)
peptide: KFWWFS
notes: model peptide without cysteine that mimics the exposed hydrophobic core of protein substrates; Immobilised on AR2G biosensors for BLI; also called model peptide; source: lyophilized peptide dissolved in 10 mM HCl
Kd [2]: 6.8 µM | stoichiometry N [2]: 0.97 | Kd [3]: 12.7 µM
